Experimental data reported in publication PMC10397247.

How the values were obtained:
4H3629-AA = molecular target: T1, 4H3629-AA; assay: two-hybrid library CCmax; settings: mean of both orientations;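 note: natural log of median RNA to DNA barcode read ratio; higher means stronger binding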
T1 chain: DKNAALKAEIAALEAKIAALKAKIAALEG

4H3782-AA = molecular target: T2, 4H3782-AA; assay: two-hybrid library CCmax; settings: mean of both orientations;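 note: natural log of median RNA to DNA barcode read ratio; higher means stronger binding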
T2 chain: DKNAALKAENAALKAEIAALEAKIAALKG

4H2903-AA = molecular target: T3, 4H2903-AA; assay: two-hybrid library CCmax; settings: mean of both orientations;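 note: natural log of median RNA to DNA barcode read ratio; higher means stronger binding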
T3 chain: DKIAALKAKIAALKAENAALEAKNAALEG

4H3939-AA = molecular target: T4, 4H3939-AA; assay: two-hybrid library CCmax; settings: mean of both orientations;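 note: natural log of median RNA to DNA barcode read ratio; higher means stronger binding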
T4 chain: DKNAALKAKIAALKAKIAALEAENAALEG

4H380-AA = molecular target: T5, 4H380-AA; assay: two-hybrid library CCmax; settings: mean of both orientations;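 note: natural log of median RNA to DNA barcode read ratio; higher means stronger binding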
T5 chain: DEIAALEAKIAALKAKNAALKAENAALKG

4H341-AA = molecular target: T6, 4H341-AA; assay: two-hybrid library CCmax; settings: mean of both orientations;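 note: natural log of median RNA to DNA barcode read ratio; higher means stronger binding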
T6 chain: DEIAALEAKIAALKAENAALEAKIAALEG

4H2728-AA = molecular target: T7, 4H2728-AA; assay: two-hybrid library CCmax
T7 chain: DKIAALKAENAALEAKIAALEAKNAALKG

4H2774-AA = molecular target: T8, 4H2774-AA; assay: two-hybrid library CCmax; settings: mean of both orientations
T8 chain: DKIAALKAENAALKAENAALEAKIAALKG

4H3129-AA = molecular target: T9, 4H3129-AA; assay: two-hybrid library CCmax; settings: mean of both orientations
T9 chain: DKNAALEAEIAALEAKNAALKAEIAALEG

4H483-AA = molecular target: T10, 4H483-AA; assay: two-hybrid library CCmax; settings: mean of both orientations
T10 chain: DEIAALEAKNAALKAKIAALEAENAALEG

4H63-AA = molecular target: T11, 4H63-AA; assay: two-hybrid library CCmax; settings: mean of both orientations
T11 chain: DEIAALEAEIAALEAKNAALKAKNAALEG

4H464-AA = molecular target: T12, 4H464-AA; assay: two-hybrid library CCmax; settings: mean of both orientations
T12 chain: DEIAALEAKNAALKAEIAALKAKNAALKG

4H446-AA = molecular target: T13, 4H446-AA; assay: two-hybrid library CCmax; settings: mean of both orientations
T13 chain: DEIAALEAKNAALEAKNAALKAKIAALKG

4H2961-AA = molecular target: T14, 4H2961-AA; assay: two-hybrid library CCmax; settings: mean of both orientations
T14 chain: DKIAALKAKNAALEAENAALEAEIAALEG

4H3414-AA = molecular target: T15, 4H3414-AA; assay: two-hybrid library CCmax; settings: mean of both orientations
T15 chain: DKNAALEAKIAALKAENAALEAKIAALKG

4H3969-AA = molecular target: T16, 4H3969-AA; assay: two-hybrid library CCmax; settings: mean of both orientations
T16 chain: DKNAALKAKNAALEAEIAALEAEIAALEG

4H3595-AA = molecular target: T17, 4H3595-AA; assay: two-hybrid library CCmax; settings: mean of both orientations
T17 chain: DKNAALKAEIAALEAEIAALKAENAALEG

4H3049-AA = molecular target: T18, 4H3049-AA; assay: two-hybrid library CCmax; settings: mean of both orientations
T18 chain: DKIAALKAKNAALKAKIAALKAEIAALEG

O7 = molecular target: T19, O7; assay: two-hybrid library CCNG1
T19 chain: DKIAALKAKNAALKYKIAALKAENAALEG

O6 = molecular target: T20, O6; assay: two-hybrid library CCNG1
T20 chain: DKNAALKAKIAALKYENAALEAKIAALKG

O5 = molecular target: T21, O5; assay: two-hybrid library CCNG1
T21 chain: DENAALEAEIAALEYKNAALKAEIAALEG

O9 = molecular target: T22, O9; assay: two-hybrid library CCNG1
T22 chain: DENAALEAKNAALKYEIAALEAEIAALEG

O8 = molecular target: T23, O8; assay: two-hybrid library CCNG1
T23 chain: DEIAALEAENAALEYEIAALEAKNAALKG

GCN2_T = assay: two-hybrid library CCmax
4H3651-AA = molecular target: T24, 4H3651-AA; assay: two-hybrid library CCmax
T24 chain: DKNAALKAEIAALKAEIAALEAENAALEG

4H465-AA = molecular target: T25, 4H465-AA; assay: two-hybrid library CCmax; settings: mean of both orientations
T25 chain: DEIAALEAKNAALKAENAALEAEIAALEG

4H_GCN4 = assay: two-hybrid library CCmax; settings: mean of both orientations
4H486-AA = molecular target: T26, 4H486-AA; assay: two-hybrid library CCmax; settings: mean of both orientations
T26 chain: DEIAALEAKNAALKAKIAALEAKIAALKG

4H_APH = molecular target: T27, 4H_APH; assay: two-hybrid library CCmax; settings: mean of both orientations
T27 chain: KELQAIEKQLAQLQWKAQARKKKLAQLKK

4H535-AA = molecular target: T28, 4H535-AA; assay: two-hybrid library CCmax; settings: mean of both orientations
T28 chain: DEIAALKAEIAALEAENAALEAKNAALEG

4H3705-AA = molecular target: T29, 4H3705-AA; assay: two-hybrid library CCmax; settings: mean of both orientations
T29 chain: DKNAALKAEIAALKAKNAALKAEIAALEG

4H895-AA = molecular target: T30, 4H895-AA; assay: two-hybrid library CCmax; settings: mean of both orientations
T30 chain: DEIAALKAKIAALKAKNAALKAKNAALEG

4H58-AA = molecular target: T31, 4H58-AA; assay: two-hybrid library CCmax; settings: mean of both orientations
T31 chain: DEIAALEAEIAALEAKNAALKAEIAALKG

4H_BCR = molecular target: T32, 4H_BCR; assay: two-hybrid library CCmax; settings: mean of both orientations
T32 chain: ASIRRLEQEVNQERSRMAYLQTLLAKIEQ

4H_GCN4, sequence (chain, as listed by the source): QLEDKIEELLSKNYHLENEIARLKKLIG

B1: 4H2728-AA (peptide)
chain: DKIAALKAENAALEAKIAALEAKNAALKG
interaction score (4H3629-AA): -0.438
interaction score (4H3782-AA): -1.28
interaction score (4H2903-AA): -1.25
interaction score (4H3939-AA): -1.01
interaction score (4H380-AA): -1.69
interaction score (4H341-AA): -0.899
interaction score (4H2728-AA): -0.514
interaction score (4H2774-AA): -1.68
interaction score (4H3129-AA): 0.939
interaction score (4H483-AA): 2.24
interaction score (4H63-AA): -0.35
interaction score (4H464-AA): 0.651
interaction score (4H446-AA): -0.989
interaction score (4H2961-AA): -1.41
interaction score (4H3414-AA): -1.03
interaction score (4H3969-AA): -1.14
interaction score (4H3595-AA): -1.57
interaction score (4H3049-AA): 0.953

B2: O5 (peptide)
chain: DENAALEAEIAALEYKNAALKAEIAALEG
interaction score (O7): -2.16
interaction score (O6): 1.32
interaction score (O5): -2.36
interaction score (O9): -2.25
interaction score (O8): -2.4

B3: 4H3651-AA (peptide)
chain: DKNAALKAEIAALKAEIAALEAENAALEG
interaction score (GCN2_T): -1.92
interaction score (4H3651-AA): -0.561
interaction score (4H465-AA): -1.28
interaction score (4H_GCN4): -1.81
interaction score (4H486-AA): -0.82
interaction score (4H3782-AA): -0.2
interaction score (4H_APH): -1.76
interaction score (4H535-AA): -1.16
interaction score (4H3705-AA): -1.53
interaction score (4H895-AA): 2.08
interaction score (4H58-AA): -0.388
interaction score (4H_BCR): -1.92
